The text below walks through data of US12384850 (SYSTIMMUNE, dated 2025).

In one assay the target is T1, human 41BB (human, UniProt Q07011 24-255).
T1 construct: whole, on cells; also called 41BB expressing CHO cells; human 41BB transfected CHO cells
The experiment in a line: FACS on human 41BB transfected CHO cells. Here is the method:
(§1) Example 2: FACS Analysis of Tetra-Specific GNC Antibody Binding to Human 41BB Transfected CHO Cells The tetra-specific GNC antibodies listed in TABLEs 3 and 4 were tested for binding to Chinese hamster ovary cells (CHO) cells stably expressing a full-length human ROR1. Antibodies were prepared at 2× final concentration and titrated 1:5 across 3 wells of a 96 well plate in 50 ul of PBS/2% FBS and then 5,000 ROR1-CHO cells in 50 ul PBS/2% FBS were added. This mixture was incubated for 30 minutes on ice, washed once with 200 ul PBS/2% FBS, and then the secondary antibody PE Goat anti-Human IgG Fc at 1:1000 dilution of stock was added, and this mixture was incubated for 30 minutes on ice. Cells were washed 2×200 ul PBS/2% FBS, resuspended in 50 ul PBS/2% FBS and analyzed on a BD LSRFORTESSA and the binding profile is shown in FIG. 5. All of the tetra-specific GNC antibodies except for the control SI-27E12 contain a 41BB binding domain, 460C3, 420H5, or 466F6 and bound to 41BB expressing CHO cells with varying intensity.

The target in a further assay is T2, full-length human ROR1 (human, UniProt Q01973 30-937).
T2 construct: whole, on cells; also called human ROR1 transfected CHO cells; ROR1-CHO cells
The experiment in a line: FACS on CHO cells stably expressing full-length human ROR1. Here is the method: as §1, with “Example 1:” for “Example 2:”, “Tetra-Specific Specific” for “Tetra-Specific GNC”, “Human ROR1” for “Human 41BB”, “FIG. 4.” for “FIG. 5. All of the tetra-specific GNC antibodies except for the control SI-27E12 contain a 41BB binding domain, 460C3, 420H5, or 466F6 and bound to 41BB expressing CHO cells with varying intensity.”

A further assay deals with T3, human PD-L1 (human, UniProt Q9NZQ7 19-290).
T3 construct: whole, on cells; also called PDL1 expressing CHO cells; human PD-L1 transfected CHO cells
The experiment in a line: FACS on human PD-L1 transfected CHO cells. Here is the method:
as §1, with “3:” for “2:”, “PDL1” for “41BB”, “[…]” for “a full-length”, “6.” for “5. All of the tetra-specific GNC antibodies except for the control SI-27E12 contain a 41BB binding domain, 460C3, 420H5, or 466F6 and bound to 41BB expressing CHO cells with varying intensity.”

T1 sequence (Q07011 24-255): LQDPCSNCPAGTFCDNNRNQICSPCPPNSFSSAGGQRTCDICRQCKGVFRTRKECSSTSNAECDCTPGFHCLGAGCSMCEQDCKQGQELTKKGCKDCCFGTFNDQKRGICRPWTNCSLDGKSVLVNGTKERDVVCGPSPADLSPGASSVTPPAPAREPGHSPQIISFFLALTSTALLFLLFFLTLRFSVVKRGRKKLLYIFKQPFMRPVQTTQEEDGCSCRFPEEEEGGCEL
T3 sequence (Q9NZQ7 19-290): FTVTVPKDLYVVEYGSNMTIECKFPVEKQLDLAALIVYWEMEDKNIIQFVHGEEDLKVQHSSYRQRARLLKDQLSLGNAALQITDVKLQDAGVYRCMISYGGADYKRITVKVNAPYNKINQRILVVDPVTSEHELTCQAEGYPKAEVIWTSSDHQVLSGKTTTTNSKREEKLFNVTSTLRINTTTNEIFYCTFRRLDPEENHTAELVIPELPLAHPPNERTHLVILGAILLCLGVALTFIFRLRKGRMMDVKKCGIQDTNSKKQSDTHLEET
T2 sequence (Q01973 30-937): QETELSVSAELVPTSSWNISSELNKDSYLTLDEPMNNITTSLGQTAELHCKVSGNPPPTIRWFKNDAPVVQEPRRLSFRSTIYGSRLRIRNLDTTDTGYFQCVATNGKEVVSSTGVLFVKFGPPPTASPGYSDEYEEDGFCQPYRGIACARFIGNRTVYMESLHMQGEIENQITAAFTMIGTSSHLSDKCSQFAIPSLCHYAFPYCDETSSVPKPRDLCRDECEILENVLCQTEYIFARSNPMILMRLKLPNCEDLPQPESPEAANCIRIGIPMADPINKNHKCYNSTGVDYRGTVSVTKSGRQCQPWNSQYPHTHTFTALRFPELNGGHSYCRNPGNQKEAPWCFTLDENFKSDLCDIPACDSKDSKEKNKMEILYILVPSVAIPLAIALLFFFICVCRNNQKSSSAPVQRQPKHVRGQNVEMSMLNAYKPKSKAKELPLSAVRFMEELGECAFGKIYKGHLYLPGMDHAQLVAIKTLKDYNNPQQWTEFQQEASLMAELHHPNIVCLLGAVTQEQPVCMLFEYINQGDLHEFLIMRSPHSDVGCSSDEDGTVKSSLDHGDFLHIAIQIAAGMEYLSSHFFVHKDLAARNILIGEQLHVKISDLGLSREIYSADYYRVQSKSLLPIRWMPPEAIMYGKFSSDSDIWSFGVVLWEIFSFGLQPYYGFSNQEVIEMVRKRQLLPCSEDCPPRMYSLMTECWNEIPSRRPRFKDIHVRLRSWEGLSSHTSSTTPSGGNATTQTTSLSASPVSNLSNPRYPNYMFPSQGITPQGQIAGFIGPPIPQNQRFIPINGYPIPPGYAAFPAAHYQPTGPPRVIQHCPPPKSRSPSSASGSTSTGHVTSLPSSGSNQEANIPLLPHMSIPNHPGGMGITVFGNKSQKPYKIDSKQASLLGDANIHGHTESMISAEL

B1: SI-35E18 (460C3-L1H1-scFv × PL230C6-Fab × 323H7-H4L1-scFv × 284A10-H1L1-scFv) (bispecific antibody, human IgG1, kappa)
heavy: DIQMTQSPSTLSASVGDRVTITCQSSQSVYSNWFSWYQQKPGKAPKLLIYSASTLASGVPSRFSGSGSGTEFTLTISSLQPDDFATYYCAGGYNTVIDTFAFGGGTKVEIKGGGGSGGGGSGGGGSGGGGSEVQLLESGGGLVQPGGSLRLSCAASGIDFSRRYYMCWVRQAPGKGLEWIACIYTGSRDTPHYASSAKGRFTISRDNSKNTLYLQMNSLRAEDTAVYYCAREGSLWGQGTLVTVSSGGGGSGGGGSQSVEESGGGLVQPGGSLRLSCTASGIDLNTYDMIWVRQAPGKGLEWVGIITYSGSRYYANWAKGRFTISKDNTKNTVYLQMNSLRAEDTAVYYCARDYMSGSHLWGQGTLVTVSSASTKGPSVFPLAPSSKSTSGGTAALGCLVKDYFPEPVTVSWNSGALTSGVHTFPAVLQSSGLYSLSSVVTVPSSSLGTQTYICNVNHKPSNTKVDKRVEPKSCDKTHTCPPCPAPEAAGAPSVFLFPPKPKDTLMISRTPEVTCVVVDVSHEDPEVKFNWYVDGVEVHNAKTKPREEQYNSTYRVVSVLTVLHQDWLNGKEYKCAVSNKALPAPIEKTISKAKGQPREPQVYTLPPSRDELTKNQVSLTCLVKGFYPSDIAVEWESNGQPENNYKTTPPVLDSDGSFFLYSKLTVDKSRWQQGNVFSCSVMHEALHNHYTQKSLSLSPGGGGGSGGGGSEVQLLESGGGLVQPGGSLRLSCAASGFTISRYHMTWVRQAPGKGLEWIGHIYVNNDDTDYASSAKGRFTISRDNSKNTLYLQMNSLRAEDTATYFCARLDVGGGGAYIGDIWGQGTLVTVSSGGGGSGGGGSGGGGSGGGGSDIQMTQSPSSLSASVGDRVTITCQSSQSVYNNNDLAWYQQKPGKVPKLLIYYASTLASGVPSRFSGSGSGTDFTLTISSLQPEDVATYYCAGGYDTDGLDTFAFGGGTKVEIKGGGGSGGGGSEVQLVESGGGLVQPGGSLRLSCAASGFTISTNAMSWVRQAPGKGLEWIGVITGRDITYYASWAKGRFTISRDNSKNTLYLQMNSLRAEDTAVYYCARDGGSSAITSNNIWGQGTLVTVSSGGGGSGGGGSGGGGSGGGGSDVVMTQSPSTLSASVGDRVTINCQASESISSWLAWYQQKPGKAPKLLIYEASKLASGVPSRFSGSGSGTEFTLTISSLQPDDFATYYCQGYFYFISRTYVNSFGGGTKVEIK
light: AYDMTQSPSSVSASVGDRVTIKCQASEDIYSFLAWYQQKPGKAPKLLIHSASSLASGVPSRFSGSGSGTDFTLTISSLQPEDFATYYCQQGYGKNNVDNAFGGGTKVEIKRTVAAPSVFIFPPSDEQLKSGTASVVCLLNNFYPREAKVQWKVDNALQSGNSQESVTEQDSKDSTYSLSSTLTLSKADYEKHKVYACEVTHQGLSSPVTKSFNRGEC
notes: Tetra-specific GNC antibody (41BB x PD-L1 x ROR1 x CD3), IgG1 null2 Fc
With B1, the binding result in the assay with human 41BB, with full-length human ROR1 and in the assay with human PD-L1 was “binds” in each case.

B2: SI-27E13 (bispecific antibody, not shown: small tags and cut ends)
heavy (part 1 of 7): DIQMTQSPSTLSASVGDRVTITCQSSQSVYSNWFSWYQQKPGKAPKLLIYSASTLASGVPSRFSGSGSGTEFTLTISSLQPDDFATYYCAGGYNTVIDTFAFGGGTKVEIK
heavy (part 2 of 7): EVQLLESGGGLVQPGGSLRLSCAASGIDFSRRYYMCWVRQAPGKGLEWIACIYTGSRDTPHYASSAKGRFTISRDNSKNTLYLQMNSLRAEDTAVYYCAREGSLWGQGTLVTVSS
heavy (part 3 of 7): not shown
heavy (part 4 of 7): EVKLDETGGGLVQPGRPMKLSCVASGFTFSDYWMNWVRQSPEKGLEWVAQIRNKPYNYETYYSDSVKGRFTISRDDSKSSVYLQMNNLRVEDMGIYYCTGSYYGMDYWGQGTSVTVSS
heavy (part 5 of 7): DVVMTQTPLSLPVSLGDQASISCRSSQSLVHSNGNTYLRWYLQKPGQSPKVLIYKVSNRFSGVPDRFSGSGSGTDFTLKISRVEAEDLGVYFCSQSTHVPWTFGGGTKLEIK
heavy (part 6 of 7): EVQLVESGGGLVQPGGSLRLSCAASGIDLSSNAMSWVRQAPGKGLEWIGVITGRDITYYASWAKGRFTISRDNSKNTLYLQMNSLRAEDTAVYYCARDGGSSAINSKNIWGQGTLVTVSS
heavy (part 7 of 7): DIQMTQSPSTLSASVGDRVTITCQASESISSWLAWYQQKPGKAPKLLIYEASKLASGVPSRFSGSGSGTEFTLTISSLQPDDFATYYCQGYFYFISRTYVNAFGGGTKVEIK
light: AYDMTQSPSSVSASVGDRVTIKCQASEDIYSFLAWYQQKPGKAPKLLIHSASSLASGVPSRFSGSGSGTDFTLTISSLQPEDFATYYCQQGYGKNNVDNAFGGGTKVEIKRTVAAPSVFIFPPSDEQLKSGTASVVCLLNNFYPREAKVQWKVDNALQSGNSQESVTEQDSKDSTYSLSSTLTLSKADYEKHKVYACEVTHQGLSSPVTKSFNRGEC
notes: the listing has only VHv3/VLv2
For B2, the binding result with human 41BB and with human PD-L1 was “binds” each time.

B3: SI-35E2 (bispecific antibody, not shown: small tags and cut ends)
heavy (part 1 of 7): DIQMTQSPSTLSASVGDRVTITCQSSQSVYSNWFSWYQQKPGKAPKLLIYSASTLASGVPSRFSGSGSGTEFTLTISSLQPDDFATYYCAGGYNTVIDTFAFGGGTKVEIK
heavy (part 2 of 7): EVQLLESGGGLVQPGGSLRLSCAASGIDFSRRYYMCWVRQAPGKGLEWIACIYTGSRDTPHYASSAKGRFTISRDNSKNTLYLQMNSLRAEDTAVYYCAREGSLWGQGTLVTVSS
heavy (part 3 of 7): not shown
heavy (part 4 of 7): QSLVESGGGLVQPGGSLRLSCTASGFSLSRYYMTWVRQAPGKGLEWIGTIYTSGSTWYASWTKGRFTISKDNTKNTVDLQMNSLRAEDTAVYYCARSYYGGDKTGLGIWGQGTLVTVSS
heavy (part 5 of 7): DIQMTQSPSTLSASVGDRVTITCQASQSIDSWLSWYQQKPGKAPKLLIYQASTLASGVPSRFSGSGSGTEFTLTISSLQPDDFATYYCQSAYGVSGTSSYLYTFGGGTKVEIK
heavy (part 6 of 7): EVKLDETGGGLVQPGRPMKLSCVASGFTFSDYWMNWVRQSPEKGLEWVAQIRNKPYNYETYYSDSVKGRFTISRDDSKSSVYLQMNNLRVEDMGIYYCTGSYYGMDYWGQGTSVTVSS
heavy (part 7 of 7): DVVMTQTPLSLPVSLGDQASISCRSSQSLVHSNGNTYLRWYLQKPGQSPKVLIYKVSNRFSGVPDRFSGSGSGTDFTLKISRVEAEDLGVYFCSQSTHVPWTFGGGTKLEIK
light: AYDMTQSPSSVSASVGDRVTIKCQASEDIYSFLAWYQQKPGKAPKLLIHSASSLASGVPSRFSGSGSGTDFTLTISSLQPEDFATYYCQQGYGKNNVDNAFGGGTKVEIKRTVAAPSVFIFPPSDEQLKSGTASVVCLLNNFYPREAKVQWKVDNALQSGNSQESVTEQDSKDSTYSLSSTLTLSKADYEKHKVYACEVTHQGLSSPVTKSFNRGEC
notes: as for B2
For B3, the binding result in the assay with human 41BB and with human PD-L1 was “binds” throughout.

B4: SI-27E12 (bispecific antibody, not shown: small tags and cut ends)
heavy (part 1 of 7): DVVMTQTPLSLPVSLGDQASISCRSSQSLVHSNGNTYLRWYLQKPGQSPKVLIYKVSNRFSGVPDRFSGSGSGTDFTLKISRVEAEDLGVYFCSQSTHVPWTFGGGTKLEIK
heavy (part 2 of 7): EVKLDETGGGLVQPGRPMKLSCVASGFTFSDYWMNWVRQSPEKGLEWVAQIRNKPYNYETYYSDSVKGRFTISRDDSKSSVYLQMNNLRVEDMGIYYCTGSYYGMDYWGQGTSVTVSS
heavy (part 3 of 7): not shown
heavy (part 4 of 7): QSLVESGGGLVQPGGSLRLSCTASGFSLSRYYMTWVRQAPGKGLEWIGTIYTSGSTWYASWTKGRFTISKDNTKNTVDLQMNSLRAEDTAVYYCARSYYGGDKTGLGIWGQGTLVTVSS
heavy (part 5 of 7): DIQMTQSPSTLSASVGDRVTITCQASQSIDSWLSWYQQKPGKAPKLLIYQASTLASGVPSRFSGSGSGTEFTLTISSLQPDDFATYYCQSAYGVSGTSSYLYTFGGGTKVEIK
heavy (part 6 of 7): EVQLVESGGGLVQPGGSLRLSCAASGIDLSSNAMSWVRQAPGKGLEWIGVITGRDITYYASWAKGRFTISRDNSKNTLYLQMNSLRAEDTAVYYCARDGGSSAINSKNIWGQGTLVTVSS
heavy (part 7 of 7): DIQMTQSPSTLSASVGDRVTITCQASESISSWLAWYQQKPGKAPKLLIYEASKLASGVPSRFSGSGSGTEFTLTISSLQPDDFATYYCQGYFYFISRTYVNAFGGGTKVEIK
light: AYDMTQSPSSVSASVGDRVTIKCQASEDIYSFLAWYQQKPGKAPKLLIHSASSLASGVPSRFSGSGSGTDFTLTISSLQPEDFATYYCQQGYGKNNVDNAFGGGTKVEIKRTVAAPSVFIFPPSDEQLKSGTASVVCLLNNFYPREAKVQWKVDNALQSGNSQESVTEQDSKDSTYSLSSTLTLSKADYEKHKVYACEVTHQGLSSPVTKSFNRGEC
notes: the listing has only VHv3/VLv2; also called control SI-27E12
B4: in the assay with human PD-L1, the binding result is listed as “binds”.

B5: SI-27E15 (bispecific antibody, not shown: small tags and cut ends)
heavy (part 1 of 7): DIQMTQSPSTLSASVGDRVTITCQSSQSVYSNWFSWYQQKPGKAPKLLIYSASTLASGVPSRFSGSGSGTEFTLTISSLQPDDFATYYCAGGYNTVIDTFAFGGGTKVEIK
heavy (part 2 of 7): EVQLLESGGGLVQPGGSLRLSCAASGIDFSRRYYMCWVRQAPGKGLEWIACIYTGSRDTPHYASSAKGRFTISRDNSKNTLYLQMNSLRAEDTAVYYCAREGSLWGQGTLVTVSS
heavy (part 3 of 7): not shown
heavy (part 4 of 7): QSLVESGGGLVQPGGSLRLSCTASGFSLSRYYMTWVRQAPGKGLEWIGTIYTSGSTWYASWTKGRFTISKDNTKNTVDLQMNSLRAEDTAVYYCARSYYGGDKTGLGIWGQGTLVTVSS
heavy (part 5 of 7): DIQMTQSPSTLSASVGDRVTITCQASQSIDSWLSWYQQKPGKAPKLLIYQASTLASGVPSRFSGSGSGTEFTLTISSLQPDDFATYYCQSAYGVSGTSSYLYTFGGGTKVEIK
heavy (part 6 of 7): EVQLVESGGGLVQPGGSLRLSCAASGIDLSSNAMSWVRQAPGKGLEWIGVITGRDITYYASWAKGRFTISRDNSKNTLYLQMNSLRAEDTAVYYCARDGGSSAINSKNIWGQGTLVTVSS
heavy (part 7 of 7): DIQMTQSPSTLSASVGDRVTITCQASESISSWLAWYQQKPGKAPKLLIYEASKLASGVPSRFSGSGSGTEFTLTISSLQPDDFATYYCQGYFYFISRTYVNAFGGGTKVEIK
light: DVVMTQTPLSLPVSLGDQASISCRSSQSLVHSNGNTYLRWYLQKPGQSPKVLIYKVSNRFSGVPDRFSGSGSGTDFTLKISRVEAEDLGVYFCSQSTHVPWTFGGGTKLEIKRTVAAPSVFIFPPSDEQLKSGTASVVCLLNNFYPREAKVQWKVDNALQSGNSQESVTEQDSKDSTYSLSSTLTLSKADYEKHKVYACEVTHQGLSSPVTKSFNRGEC
notes: also called control SI-27E15
For the molecule B5, the binding result with human 41BB was “binds”.
